Reference: PMC4874835 (Nature, 2016)

Tests used:
[1] = target: cMCU-ΔNTD (C. elegans MCU residues 167-316, N-terminal domain deleted) (C. elegans) (UniProt Q21121); assay: SEC-MALS
[2] = target: cMCU-ΔNTD (C. elegans MCU residues 167-316, N-terminal domain deleted) (C. elegans) (UniProt Q21121); assay: negative stain EM
[3] = target: cMCU-ΔNTD (C. elegans MCU residues 167-316, N-terminal domain deleted) (C. elegans) (UniProt Q21121); assay: cross-linking
cross-linking = target: the molecule itself; assay: cross-linking

Molecule	stoichiometry N [1]	stoichiometry N [2]	stoichiometry N [3]	stoichiometry N (cross-linking)
cMCU-ΔNTD (C. elegans MCU residues 167-316, N-terminal domain deleted) (from UniProt Q21121 167-316) (domain or fragment)	5	5	5	
KQNFDIEKYNRLVTEVDELRNQLKRMRDPLE [CCH peptide (cMCU residues 288-316 plus C-terminal L and E)]				5
